Each block holds one binder with its values, some of them ahead of it. No end group written: not given here. *: point of attachment. FITC = O=C1OC2(c3ccc(O)cc3Oc3cc(O)ccc32)c2ccc(NC(=S)*)cc21
What was measured:
Conditions in all cases: both partners purified
[1] = target: T1, H3.3/H4 (human | X. laevis, UniProt P84243 1-136; P62799 1-103); assay: fluorescence polarisation; direct: increasing H3/H4 titrated into 10 nM FITC-UBN1(127–148); 20 mM HEPES pH 7.5, 750 mM NaCl, 1 mM TCEP; one site total binding fit
T1 construct: histone H3.3, human, from a human cDNA library (ATCC 77430); also called H3.3(FL)/H4(FL); FL H3.3/H4; not shown: His6, N-terminal, cleaved; copies: 2 + 2

[2] = target: T2, H3.1/H4 (human | X. laevis, UniProt P68431 1-136; P62799 1-103); assay: as above
T2 construct: also called H3.1(FL)/H4(FL); FL H3.1/H4; not shown: His6, N-terminal, cleaved; copies: 2 + 2

[3] = target: T1, H3.3/H4; assay: pull-down; 2 μM GST-tagged protein as bait on glutathione agarose, 4 μM H3/H4; 20 mM HEPES pH 7.5, 750 mM NaCl, 1 mM TCEP, 4 °C; Coomassie gel (Figs 2, 3, Supplementary Figs 1, 4, 5)
[4] = target: T1, H3.3/H4; assay: ITC; 0.450 mM UBN1 injected into a cell with 30 μM H3/H4, 22 °C; 20 mM HEPES pH 7.5, 750 mM NaCl, 1 mM TCEP
[5] = target: T1, H3.3/H4; assay: ITC + fluorescence polarisation; range of dissociation constants printed 'depending on the assay used' (ITC and FP competition against FITC-UBN1(127–148)); 750 mM NaCl buffer
[6] = target: T1, H3.3/H4; assay: fluorescence polarisation; competition: UBN1 competitor titrated into 10 nM FITC-UBN1(127–148) with 6.5 μM H3.3/H4 or 25 μM H3.1/H4; 20 mM HEPES pH 7.5, 750 mM NaCl, 1 mM TCEP
[7] = target: T3, Asf1/H3.3(FL)/H4(FL) (S. cerevisiae | human | X. laevis, UniProt P32447 1-169; P84243 1-136; P62799 1-103); assay: ITC; 0.450 mM UBN1 injected into a cell with 30 μM H3/H4, 22 °C; 20 mM HEPES pH 7.5, 750 mM NaCl, 1 mM TCEP
T3 construct: histone H3.3, human; also called Asf1/H3.3(FL)/H4(FL) complex; not shown: His6, N-terminal, cleaved; copies: + +

- Kd [1]: 4.3 ± 0.2 µM
- Kd [2]: 17.7 ± 2.3 µM
B1: FITC-UBN1(127–148) (peptide)
peptide: {FITC}-DMGYGYDESDSFIDNSEAYDEL
notes: also called FITC-labelled UBN1 peptide; source: synthetic peptide (Genscript)

- binding result [3]: binds
B3: GST-UBN1(92–175) S137A (domain or fragment)
chain: NDEEKERHKVEALARKFEEKYGGKKRRKDRIQDLIDMGYGYDESDAFIDNSEAYDELVPASLTTKYGGFYINSGTLQFRQASES
notes: also called S137 alanine point mutant; source: E. coli BL21-Gold(DE3), purified; not shown: GST, N-terminal, kept

- binding result [4]: binds
B5: UBN1(122–175) (domain or fragment)
chain: not shown

- binding result [4]: binds
B6: UBN1(92–148) (domain or fragment)
chain: NDEEKERHKVEALARKFEEKYGGKKRRKDRIQDLIDMGYGYDESDSFIDNSEAYDEL

- binding result [6]: binds
B9: UBN1(92–175) E134A (domain or fragment)
chain: NDEEKERHKVEALARKFEEKYGGKKRRKDRIQDLIDMGYGYDASDSFIDNSEAYDELVPASLTTKYGGFYINSGTLQFRQASES
notes: one of the 27 alanine point mutants; the text names only the residue; also called E134 alanine point mutant; source: E. coli BL21-Gold(DE3), purified (TEV cleavage, gel filtration); not shown: GST, N-terminal, cleaved

Continued, binder first:

B2: GST-UBN1(92–175) S135A (domain or fragment)
chain: NDEEKERHKVEALARKFEEKYGGKKRRKDRIQDLIDMGYGYDEADSFIDNSEAYDELVPASLTTKYGGFYINSGTLQFRQASES
notes: one of the 27 alanine point mutants; the text names only the residue; also called S135 alanine point mutant; source: E. coli BL21-Gold(DE3), purified; not shown: GST, N-terminal, kept
- binding result [3]: binds

B4: GST-UBN1(92–175) E134A (domain or fragment)
chain: NDEEKERHKVEALARKFEEKYGGKKRRKDRIQDLIDMGYGYDASDSFIDNSEAYDELVPASLTTKYGGFYINSGTLQFRQASES
notes: one of the 27 alanine point mutants; the text names only the residue; also called E134 alanine point mutant; source: E. coli BL21-Gold(DE3), purified; not shown: GST, N-terminal, kept
- binding result [3]: binds

B7: UBN1(92–175) (domain or fragment)
chain: NDEEKERHKVEALARKFEEKYGGKKRRKDRIQDLIDMGYGYDESDSFIDNSEAYDELVPASLTTKYGGFYINSGTLQFRQASES
notes: also called UBN1 WT; source: E. coli BL21-Gold(DE3), purified (glutathione agarose, TEV cleavage, gel filtration); not shown: GST, N-terminal, cleaved
- Kd [5]: 7 to 17 µM

B8: UBN1(92–175) S135A (domain or fragment)
chain: NDEEKERHKVEALARKFEEKYGGKKRRKDRIQDLIDMGYGYDEADSFIDNSEAYDELVPASLTTKYGGFYINSGTLQFRQASES
notes: one of the 27 alanine point mutants; the text names only the residue; also called S135 alanine point mutant; source: E. coli BL21-Gold(DE3), purified (TEV cleavage, gel filtration); not shown: GST, N-terminal, cleaved
- binding result [6]: binds

B10: UBN1(92–175) S137A (domain or fragment)
chain: NDEEKERHKVEALARKFEEKYGGKKRRKDRIQDLIDMGYGYDESDAFIDNSEAYDELVPASLTTKYGGFYINSGTLQFRQASES
notes: source: E. coli BL21-Gold(DE3), purified (TEV cleavage, gel filtration); not shown: GST, N-terminal, cleaved
- binding result [6]: binds

B11: UBN1(122–148) peptide (peptide)
peptide: IQDLIDMGYGYDESDSFIDNSEAYDEL
notes: also called UBN1-HRD peptide; source: synthetic peptide (Genscript)
- Kd [7]: ~49 µM
- Kd [5]: 40 to 46 µM

Reference: paper PMC4510971, “Ubinuclein-1 confers histone H3.3-specific-binding by the HIRA histone chaperone complex” (Nature Communications, 2015)
